These results are taken from patent publication US20070148185A1.

In experiment [1] the target is heparan sulfate proteoglycans (HSPG) expressed on the surface of HepG2 human liver cells (human). Description: 100 nM protein on HepG2 cells pretreated with Heparinase I 1.25 U/ml, against non-treated cells.
Experiment [2] has the same target. As to the kind of experiment: 100 nM protein on HepG2 cells pretreated with Heparinase I 2.50 U/ml, against non-treated cells.
The target is the same in experiment [3]. As to the kind of experiment: 100 nM protein on HepG2 cells pretreated with Heparinase I 5.00 U/ml, against non-treated cells.
Experiment [4] shares this target. Description: cell-based or functional assay.
Experiment [5] shares this target. As to the kind of experiment: HepG2 cell binding assay with soluble heparin as competitive inhibitor.
Experiment [6] shares this target. As to the kind of experiment: binding of His-tagged protein to fixed HepG2 cells, anti-polyhistidine detection.

Consider “recombinant Circumsporozoite (CS) protein with a polyhistidine tag at the carboxyl terminus”, for which the results for the Inhibition of Binding (%) in experiment [1], in experiment [2] and in experiment [3] were 48.1%, 57.7% and 59.1%, respectively.

B1: FRAP2, truncated P. falciparum FRAP containing amino acids 1-87, with C-terminal polyhistidine tag (protein)
chain: MKNRFYYNLIIKRLYTRSGGLRKPQKVTNDPESINRKVYWCFEHKPVKRTIINLIYSHNELKIFSNLLNHPTVGSSLIHELSLDGPY
In turn, B1 gave a % Inhibition of invasion of HepG2 cells by P. falciparum sporozoites, FRAP2 at 10 µg/ml in experiment [4] of 88.1%. In experiment [4], this molecule returned a % Inhibition of invasion of HepG2 cells by P. falciparum sporozoites, FRAP2 at 20 µg/ml of 92.4%. Besides, in experiment [5], the reduction of binding activity in the presence of free heparin came to 60%. The same molecule showed a loss of binding activity in comparison to the full length protein in experiment [6] of 50%. In addition, the Inhibition of Binding (%) in experiment [1] is 42.3%; in experiment [2], 41.4%; in experiment [3], 49.4%.

B2: Plasmodium falciparum Fasciclin Related Adhesive Protein (FRAP), recombinant full length protein (amino acids 1-205) with C-terminal polyhistidine tag (protein)
chain: MKNRFYYNLIIKRLYTRSGGLRKPQKVTNDPESINRKVYWCFEHKPVKRTIINLIYSHNELKIFSNLLNHPTVGSSLIHELSLDGPYTAFFPSNEAMQLINIESFNKLYNDENKLSEFVLNHVTKEYWLYRDLYGSSYQPWLMYNEKREAPEKLRNLLNNDLIVKIEGEFKHCNHSIYLNGSKIIRPNMKCHNGVVHIVDKPIIF
B2: the % Inhibition of invasion of HepG2 cells by P. falciparum sporozoites, FRAP at 10 µg/ml in experiment [4] is 80.9%. The molecule also displayed a % Inhibition of invasion of HepG2 cells by P. falciparum sporozoites, FRAP at 20 µg/ml in experiment [4] of 89.5%. The reduction of binding activity in the presence of free heparin in experiment [5] worked out at 55%. Further, the Inhibition of Binding (%) is 39.4% in experiment [1], 42.1% in experiment [2] and 47.8% in experiment [3].
